T1: dog CD40 on blood cells (dog, UniProt Q7YRL5 21-274)
T1 construct: whole, on cells; also called dog blood
T1 sequence (looked up): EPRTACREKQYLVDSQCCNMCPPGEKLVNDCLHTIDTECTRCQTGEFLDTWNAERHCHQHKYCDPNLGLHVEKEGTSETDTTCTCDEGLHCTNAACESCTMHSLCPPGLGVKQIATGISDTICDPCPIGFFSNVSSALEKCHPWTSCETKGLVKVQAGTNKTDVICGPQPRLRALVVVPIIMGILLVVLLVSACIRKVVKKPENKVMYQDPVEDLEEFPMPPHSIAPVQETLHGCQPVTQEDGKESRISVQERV

T2: rat CD40 on blood cells (rat, UniProt A6JXD6 20-289)
T2 construct: also called rat blood
T2 sequence: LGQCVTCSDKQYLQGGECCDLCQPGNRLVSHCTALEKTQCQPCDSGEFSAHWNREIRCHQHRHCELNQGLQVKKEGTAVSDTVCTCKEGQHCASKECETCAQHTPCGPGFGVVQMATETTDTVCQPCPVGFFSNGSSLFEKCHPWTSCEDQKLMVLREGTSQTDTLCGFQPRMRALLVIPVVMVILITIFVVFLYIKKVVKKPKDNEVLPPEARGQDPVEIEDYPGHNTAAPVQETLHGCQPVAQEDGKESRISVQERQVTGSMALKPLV


Legend:
[1] = target: T3, TNFR-2/Ig; assay: ELISA, TNFR-2/Ig coated, antibody 1 µg/ml
T3 construct: also called Tumor Necrosis Factor Receptor-2
T3 sequence (P20333 23-257): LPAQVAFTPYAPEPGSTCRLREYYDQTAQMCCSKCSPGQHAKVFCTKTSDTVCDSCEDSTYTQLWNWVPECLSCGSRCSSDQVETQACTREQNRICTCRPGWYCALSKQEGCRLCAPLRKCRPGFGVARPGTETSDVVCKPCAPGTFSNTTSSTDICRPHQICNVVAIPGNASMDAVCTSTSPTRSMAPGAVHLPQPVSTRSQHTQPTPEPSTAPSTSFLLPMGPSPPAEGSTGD
Procedure: (§1) We then washed the plate with PBST (PBS+0.1% Tween-20) three times and blocked the plate with PBST+0.5% BSA at 150 µl/well. We incubated the plate at room temperature for 1 hour and then washed with PBST three times. […] We incubated the plate at room temperature for 1 hour then washed with PBST three times. […] We incubated the plate at room temperature for 1 hour and then washed with PBST three times. […] We then read the plate using a SpectraMax™ plate reader.

[2] = target: T4, TNFR-1/Ig; assay: ELISA, TNFR-1/Ig coated, antibody 1 µg/ml
T4 construct: also called Tumor Necrosis Factor Receptor-1
T4 sequence (P19438 whole entry): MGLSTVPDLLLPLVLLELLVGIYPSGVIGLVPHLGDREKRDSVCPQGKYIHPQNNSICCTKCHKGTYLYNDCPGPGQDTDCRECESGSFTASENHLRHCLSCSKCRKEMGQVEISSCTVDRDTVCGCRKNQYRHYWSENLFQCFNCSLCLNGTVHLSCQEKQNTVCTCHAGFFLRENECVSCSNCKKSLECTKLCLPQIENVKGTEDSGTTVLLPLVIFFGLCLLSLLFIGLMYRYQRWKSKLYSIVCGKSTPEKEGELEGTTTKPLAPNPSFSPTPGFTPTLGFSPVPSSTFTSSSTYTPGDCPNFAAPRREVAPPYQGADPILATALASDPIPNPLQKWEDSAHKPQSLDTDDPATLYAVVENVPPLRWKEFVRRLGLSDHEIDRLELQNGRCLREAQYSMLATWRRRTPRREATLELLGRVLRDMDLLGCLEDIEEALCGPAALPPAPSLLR
Procedure: as §1

[3] = target: T5, mouse CD40 on blood cells (mouse, UniProt P27512 20-289); assay: FACS, whole blood
T5 construct: whole, on cells; also called mouse blood
T5 sequence (P27512 20-289): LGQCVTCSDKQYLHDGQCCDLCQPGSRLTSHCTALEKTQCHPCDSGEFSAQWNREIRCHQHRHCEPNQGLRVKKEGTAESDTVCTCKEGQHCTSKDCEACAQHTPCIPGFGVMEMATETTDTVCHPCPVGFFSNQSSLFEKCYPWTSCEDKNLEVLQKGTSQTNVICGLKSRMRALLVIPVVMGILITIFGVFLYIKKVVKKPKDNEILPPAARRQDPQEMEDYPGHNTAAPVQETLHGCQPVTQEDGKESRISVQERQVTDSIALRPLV

[4] = target: T1, dog CD40 on blood cells; assay: FACS, whole blood
[5] = target: T2, rat CD40 on blood cells; assay: FACS, whole blood
[6] = target: T6, human CD40 on cells (human, UniProt P25942 21-277); assay: cell-based or functional assay
T6 sequence (P25942 21-277): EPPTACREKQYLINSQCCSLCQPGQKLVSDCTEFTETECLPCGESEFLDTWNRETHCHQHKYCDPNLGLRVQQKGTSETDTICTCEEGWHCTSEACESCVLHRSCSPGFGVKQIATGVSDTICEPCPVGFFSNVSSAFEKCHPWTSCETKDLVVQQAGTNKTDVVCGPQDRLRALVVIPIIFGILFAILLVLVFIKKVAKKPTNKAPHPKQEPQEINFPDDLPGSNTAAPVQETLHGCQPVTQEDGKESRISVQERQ

[7] = target: T6, human CD40 on cells; assay: cell-based or functional assay; remark: listed apart in the source
[8] = target: RANK/Ig; assay: ELISA, RANK/Ig coated, antibody 1 µg/ml
Sequence of RANK/Ig (Q9Y6Q6 whole entry): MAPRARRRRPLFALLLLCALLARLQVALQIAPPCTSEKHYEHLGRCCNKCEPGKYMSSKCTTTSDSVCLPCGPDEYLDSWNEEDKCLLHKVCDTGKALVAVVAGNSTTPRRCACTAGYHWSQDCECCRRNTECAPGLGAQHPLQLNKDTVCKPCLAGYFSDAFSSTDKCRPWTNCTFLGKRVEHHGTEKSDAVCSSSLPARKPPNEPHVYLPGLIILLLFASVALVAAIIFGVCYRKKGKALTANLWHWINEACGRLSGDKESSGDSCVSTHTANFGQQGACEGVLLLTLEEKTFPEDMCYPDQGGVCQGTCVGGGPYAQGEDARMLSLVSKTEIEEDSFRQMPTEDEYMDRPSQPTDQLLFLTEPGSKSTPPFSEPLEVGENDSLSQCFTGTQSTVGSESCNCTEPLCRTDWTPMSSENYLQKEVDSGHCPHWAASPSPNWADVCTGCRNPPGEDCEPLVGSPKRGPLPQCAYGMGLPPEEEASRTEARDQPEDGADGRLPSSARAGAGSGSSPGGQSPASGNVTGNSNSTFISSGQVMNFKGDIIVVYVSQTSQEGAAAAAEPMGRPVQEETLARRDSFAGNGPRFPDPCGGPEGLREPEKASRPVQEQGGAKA
Procedure: as §1

[9] = target: T7, 4-1BB/Ig; assay: ELISA, 4-1BB/Ig coated, antibody 1 µg/ml
T7 construct: also called CD137
Procedure: as §1

[10] = target: T6, human CD40 on cells; assay: cell-based or functional assay; remark: listed apart in the source
[11] = target: T6, human CD40 on cells; assay: cell-based or functional assay; remark: listed apart in the source
[12] = target: T8, human CD40-IgG1 Fc fusion protein (human, UniProt P25942 21-193); assay: SPR BIAcore 3000, CD40-Ig immobilised, antibody injected
T8 construct: extracellular domain; also called CD40-Ig fusion protein; CD40-IgG fusion protein; not shown: human IgG1 Fc
T8 sequence (P25942 21-193): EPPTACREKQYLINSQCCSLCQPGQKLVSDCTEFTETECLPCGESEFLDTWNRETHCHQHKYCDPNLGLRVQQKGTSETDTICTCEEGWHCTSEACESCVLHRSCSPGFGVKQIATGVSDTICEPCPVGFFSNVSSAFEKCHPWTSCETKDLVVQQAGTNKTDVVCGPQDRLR

| Binder | CD40 specific signal over the signal for this molecule [1] | CD40 specific signal over the signal for this molecule [2] | binding result [3] | binding result [4] | binding result [5] | DC IL-12p70 secretion with LPS, EC50 [6] | B cell B7-1 (CD80), fold increase in median intensity at 1 µg/ml [7] | B cell B7-2 (CD86), fold increase in median intensity at 1 µg/ml [7] | B cell CD23, fold increase in median intensity at 1 µg/ml [7] | B cell ICAM (CD54), fold increase in median intensity at 1 µg/ml [7] | B cell MHC Class II, fold increase in median intensity at 1 µg/ml [7] | CD40 specific signal over the signal for this molecule [8] | CD40 specific signal over the signal for this molecule [9] | DC B7-1 (CD80), fold increase in median intensity at 1 µg/ml, 72 h [10] | DC B7-2 (CD86), fold increase in median intensity at 1 µg/ml, 72 h [10] | DC CD83, fold increase in median intensity at 1 µg/ml, 72 h [10] | DC ICAM (CD54), fold increase in median intensity at 1 µg/ml, 72 h [10] | DC MHC Class II, fold increase in median intensity at 1 µg/ml, 72 h [10] | Allo DC/T IFNγ secretion, EC50 [11] | Kd [12] | further results |
| --- | --- | --- | --- | --- | --- | --- | --- | --- | --- | --- | --- | --- | --- | --- | --- | --- | --- | --- | --- | --- | --- |
| monoclonal antibody 23.5.1 (antibody, human IgG2, kappa, V domains shown, also called hybridoma 23.5.1 (LN 15855), ATCC PTA-4548) VH: QVQLVESGGGVVQPGRSLRLSCVASGFTFSNYGMHWVRQAPGKGLEWVAIISYDGSNKYYADSVKGRFTISRDNSKNTLYVQMNSLRAEDTAVYYCARRGHYGRDYYSYYGLDVWGQGTTVTVSS VL: not shown | ≥ 100 fold | ≥ 100 fold | no binding | no binding | no binding | 0.1 µg/mL | 1.4 fold | 1 fold | 1.1 fold | 1.1 fold | 1.4 fold | ≥ 100 fold | ≥ 100 fold | 1.1 fold | 10.7 fold | 9.2 fold | 1.2 fold | 2.3 fold | 0.2 µg/mL | – | – |
| monoclonal antibody 3.1.1 (antibody, human IgG2, kappa, V domains shown, also called mAb 3.1.1; hybridoma 3.1.1 (LN 15848), ATCC PTA-3600) VH: QVQLVESGGGVVQPGRSLRLSCAASGFTFSSYGMHWVRQAPGKGLEWVAVISKDGGNKYHADSVKGRFTISRDNSKNALYLQMNSLRVEDTAVYYCVRRGHQLVLGYYYYNGLDVWGQGTTVTVSS VL: DIVLTQSPLSLPVTPGEPASISCRSSQSLLYSNGYNFLDWYLQKPGQSPQLLIYLGSNRASGVPDRFSGSGSGTDFTLKISRLEAEDVGVYYCMQALQTPRTFGQGTKVEIKR | ≥ 100 fold | ≥ 100 fold | no binding | no binding | no binding | 0.2 µg/mL | 1.7 fold | 1.2 fold | 5.6 fold | 1.3 fold | 3.2 fold | ≥ 100 fold | ≥ 100 fold | 1.8 fold | 23.7 fold | 15.2 fold | 1.5 fold | 4.4 fold | 0.1 µg/mL | 0.0395 nM | koff [12]: 3.31e-05 s⁻¹; kon [12]: 1.12e+06 M⁻¹ s⁻¹ |
| monoclonal antibody 21.2.1 (antibody, human IgG2, kappa, V domains shown, Human IgG2 kappa from hybridoma) VH: QVQLVESGGGVVQPGRSLRLSCAASGFTFSSYVMHWVRQAPGKGLEWVAVMSYDGSSKYYANSVKGRFTISRDNSKNTLYLQINSLRAEDTAVYYCARDGGKAVPGPDYWGQGILVTVSS VL: not shown | ≥ 100 fold | ≥ 100 fold | no binding | no binding | no binding | 0.03 µg/mL | 0.9 fold | 1 fold | 1 fold | 1.3 fold | 1.2 fold | ≥ 100 fold | ≥ 100 fold | 0.9 fold | 7.4 fold | 10.8 fold | 1.5 fold | 1.8 fold | 0.03 µg/mL | – | – |
| monoclonal antibody 10.8.3 (antibody, human IgG2, kappa, V domains shown, Human IgG2 kappa from hybridoma) VH: QVQLQESGPGLVKPSETLSLTCTVSGGSISSYYWIWIRQPAGKGLEWIGRVYTSGSTNYNPSLKSRVTMSVDTSKNQFSLKLSSVTAADTAVYYCARDGLYRGYGMDVWGQGTTVTVSS VL: DIQMTQSPSSVSASVGDRVTITCRASQPISSWLAWYQQKPGKAPKLLIYSASGLQSGVPSRFSGSGSGTDFTLTISSLQPEDFATYYCQQTDSFPLTFGGGTKVEIKR | ≥ 100 fold | ≥ 100 fold | no binding | no binding | no binding | – | – | – | – | – | – | ≥ 100 fold | ≥ 100 fold | – | – | – | – | – | – | 0.00223 nM | koff [12]: 4.48e-07 s⁻¹; kon [12]: 222000 M⁻¹ s⁻¹ |
| monoclonal antibody 15.1.1 (antibody, human IgG2, kappa, V domains shown, Human IgG2 kappa from hybridoma; also called hybridoma 15.1.1 (LN 15851), ATCC PTA-3603) VH: QVQLQESGPGLVKPSETLSLTCTVSGGSIRSYYWTWIRQPPGKGLEWIGYIYYSGSTNYNPSLKSRVTISVDMSKNQFSLKLSSVTAADTAVYYCARKGDYGGNFNYFHQWGQGTLVTVSS VL: not shown | ≥ 100 fold | ≥ 100 fold | no binding | no binding | no binding | – | – | – | – | – | – | ≥ 100 fold | ≥ 100 fold | – | – | – | – | – | – | 0.00405 nM | koff [12]: 2.83e-07 s⁻¹; kon [12]: 83000 M⁻¹ s⁻¹ |
| monoclonal antibody 22.1.1 (antibody, human IgG2, kappa, V domains shown, Human IgG2 kappa from hybridoma; also called hybridoma 22.1.1 (LN 15875), ATCC PTA-4550) VH: QVQLVESGGGVVQPGRSLRLSCAASGFTFSRYGMHWVRQAPGKGLEWVAVISSDGGNKYYADSVKGRFTISRDNSKNTLYLQMNSLRAEDTAVYYCTRRGTGKTYYHYCGMDVWGQGTTVTVSS VL: not shown | ≥ 100 fold | ≥ 100 fold | no binding | no binding | no binding | 0.1 µg/mL | 1.2 fold | 1 fold | 1.3 fold | 1.1 fold | 1.4 fold | ≥ 100 fold | ≥ 100 fold | 1.4 fold | 16.3 fold | 12 fold | 1.6 fold | 2.3 fold | 0.3 µg/mL | 0.279 nM | koff [12]: 0.000155 s⁻¹; kon [12]: 955000 M⁻¹ s⁻¹ |

— patent US7288251 (ABGENIX, dated 2007)
